Assay results taken from IntAct's records for PubMed 19446522.

B1: "Na(+)/H(+) exchange regulatory cofactor NHE-RF1" (Homo sapiens), O14745 (parent)
chain: MSADAAAGAPLPRLCCLEKGPNGYGFHLHGEKGKLGQYIRLVEPGSPAEKAGLLAGDRLVEVNGENVEKETHQQVVSRIRAALNAVRLLVVDPETDEQLQKLGVQVREELLRAQEAPGQAEPPAAAEVQGAGNENEPREADKSHPEQRELRPRLCTMKKGPSGYGFNLHSDKSKPGQFIRSVDPDSPAEASGLRAQDRIVEVNGVCMEGKQHGDVVSAIRAGGDETKLLVVDRETDEFFKKCRVIPSQEHLNGPLPVPFTNGEIQKENSREALAEAALESPRPALVRSASSDTSEELNSQDSPPKQDSTAPSSTSSSDPILDFNISLAMAKERAHQKRSSKRAPQMDWSKKNELFSNL

Variants of: B1
Conditions: with CFTR

| effect of a mutation on the interaction | Variant |
| --- | --- |
| decreasing interaction | E353A |
